From PMC12399645 (Frontiers in Immunology, 2025)

Biological target: SARS-CoV-2 spike trimer protein, Wild-type (SARS-CoV-2, original Wild-type …, UniProt P0DTC2, biotin on the Avi-tag (BirA ligase))
Assay: ELISA

Row | Binder | binding result (both partners purified) | binding result (one partner purified)
1 | KBA2402 (antibody, V domains shown, copies: 2 + 2) VH: EVQLVESGGGLVQPGRSLGLSCTTSGFTFGDFAMSWFRQAPGKGLEWVGFIRSKAYGGATQYAASVKGRFTISRDDSKSIAYLQMNSLKTEDTAVYYCTRAGEMATTVNRQFDYWGQGTLVTVSS VL: not shown | binds | –
2 | KBA2402_EVO14 (antibody, V domains shown, copies: 2 + 2) VH: EVQLVESGGGLVQPGRSLGLSCTTSGFTFGDFAMSWFRQAPGKGLEWVGFIRSKAYGGATQYAASVKGRFTISRDDSKSIAYLQMNSLKTEDTAVYYCTRAGEMATTVNRQFDYWGQGTLVTVSS VL: not shown | – | binds
3 | KBA2402_EVO17 (antibody, V domains shown, copies: 2 + 2) VH: EVQLVESGGGLVQPGRSLGLSCTTSGFTFGDFAMSWFRQAPGKGLEWVGFIRSKAYGGATQYAASVKGRFTISRDDSKSIAYLQMNSLKTEDTAVYYCTRAGEMATTVNRQFDYWGQGTLVTVSS VL: not shown | – | binds
4 | KBA2404 (antibody, V domains shown, IgG1 format; copies: 2 + 2) VH: EVQLVESGGGLVQPGGSLRLSCAASGFTVSSNYMSWVRQAPGKGLECVSVIYSGGSTYYGDSVKGRFTISRDNSKNRLYLQMHSLRAEDTAVYFCARIVSDAFDIWGQGTMVTVSS VL: DIQMTSLLSPLSASVGDRVTITCRASQNINRWLAWYQQKPGKAPKLLIYMASNLESGVPSRFSGSGSGTEFSLTISSLQPDDLATYYCQQYNSYWTSYTFGQGTKLEIK | binds | –
5 | KBA2403 (antibody, V domains shown, IgG1 format; copies: 2 + 2) VH: EVQLVESGGGLVQPGGSLRLSCVASGIIVSRNYMNWVRQAPGKGLEWVSVLYSGGTTEYADSVKGRFTISRDNSKNTLFLQMSSLRVEDTAVYFCAREGYGMDVWGQGATVTVSS VL: DIQLTQSPSFLSASVGDRVTITCRAGQGISTYLAWYQQKPGKAPKLLIYSASTLQSGVPSRFSGSGSGTEFTLTISSLQPEDFATYYCQQLNNYPPAFGGGTKVEIK | binds | –
6 | KBA2401 (antibody, V domains shown, copies: 2 + 2) VH: EVQLVQSGAEVKKPGESLKISCKGSGYTFSYFWIGWVRQMPGKGLEWMGIIYPGDSDTRYSPSFQGQVTISADKSISTAYLQWSSLKASDTAMYYCARVGIEMATTYFGFWGQGTMVTVSS VL: SYVLTQPPSVSVAPGQTARITCGGNNIGSKSVHWYQQRPGQAPVLVVYDDSDRPSEIPERFSGSSSGNTATLTISTVEAGDEADYYCQVWDSSTDHPGVFGGGTKLTVL | binds | –
